Test results taken from the supplement of paper PMC10567573.

B1: PSD2 (parent)
chain: LTHFSRRYCQCNPDDSTSEDGIHT
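Also: lentivirally expressed fusions sorted by FACS into six bins by GFP to DsRed ratio, PSI derived from sequencing read proportions per bin multiplied by bin number.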

Variants of: B1
Experiment: protein stability index of a GFP-peptide fusion (GPS, HEK-293T) (PSI 1-6); higher = more stable
Settings: c terminus: a fixed tail appended
For Q10K, the protein stability index was 2.71. Work on Q10L yielded a protein stability index of 2.63. In the case of Q10M, the protein stability index is reported as 2.19. Q10N gave a protein stability index of 2.18. Q10P gave a protein stability index of 3.41. Q10R showed a protein stability index of 2.24. In the case of Q10S, the protein stability index is reported as 2.55. Q10T showed a protein stability index of 3.35. Q10V showed a protein stability index of 2.9. Q10W gave a protein stability index of 2.51. Q10Y gave a protein stability index of 3.01. C11A gave a protein stability index of 4.22. In the case of C11D, the protein stability index is reported as 4.31. For C11E, the protein stability index was 4.38. Work on C11F yielded a protein stability index of 3.12. C11G gave a protein stability index of 4.56. Work on C11H yielded a protein stability index of 4.17. In the case of C11I, the protein stability index is reported as 4.31. Work on C11K yielded a protein stability index of 4.52. C11L gave a protein stability index of 3.65. With C11M the protein stability index was 3.84. C11N showed a protein stability index of 4.41. C11P showed a protein stability index of 4.41. Work on C11Q yielded a protein stability index of 4.71. Variant C11R has a protein stability index of 4.18. C11S gave a protein stability index of 4.61. C11T showed a protein stability index of 4.31. For C11V, the protein stability index was 4.5. Variant C11Y has a protein stability index of 3.74. Variant N12A has a protein stability index of 3.34. N12C showed a protein stability index of 2.82. In the case of N12D, the protein stability index is reported as 4.66. Variant N12E has a protein stability index of 4. In the case of N12F, the protein stability index is reported as 2.69. With N12G the protein stability index was 2.83. N12H gave a protein stability index of 3.67. Variant N12I has a protein stability index of 2.77. In the case of N12K, the protein stability index is reported as 3.37. N12L gave a protein stability index of 2.96. With N12M the protein stability index was 3.52. For N12P, the protein stability index was 3.63. Work on N12Q yielded a protein stability index of 3.13. With N12R the protein stability index was 3.21. N12S gave a protein stability index of 4.01. N12T showed a protein stability index of 3.69. N12V gave a protein stability index of 3.11. In the case of N12W, the protein stability index is reported as 3.13. Variant N12Y has a protein stability index of 2.39. With P13A the protein stability index was 2.83. P13C showed a protein stability index of 2.73. With P13D the protein stability index was 4.03. For P13F, the protein stability index was 2.68. P13G showed a protein stability index of 3.91. With P13H the protein stability index was 2.76. In the case of P13I, the protein stability index is reported as 2.68. Variant P13K has a protein stability index of 3.02. Variant P13L has a protein stability index of 2.71. Variant P13M has a protein stability index of 3.2. In the case of P13N, the protein stability index is reported as 3.38. In the case of P13Q, the protein stability index is reported as 3.06. Variant P13R has a protein stability index of 3.19. With P13S the protein stability index was 2.84. With P13T the protein stability index was 3.5. Variant P13V has a protein stability index of 3.11. Work on P13W yielded a protein stability index of 1.94. Work on P13Y yielded a protein stability index of 2.44. D14A showed a protein stability index of 2.09. In the case of D14C, the protein stability index is reported as 2.8. D14E showed a protein stability index of 3.02. Work on D14F yielded a protein stability index of 2.04. Work on D14G yielded a protein stability index of 2.35. D14H showed a protein stability index of 2.14. Variant D14I has a protein stability index of 2.08. Work on D14K yielded a protein stability index of 2.49. With D14L the protein stability index was 2.13. In the case of D14M, the protein stability index is reported as 2.27. With D14N the protein stability index was 2.45. In the case of D14P, the protein stability index is reported as 2.06. Work on D14Q yielded a protein stability index of 2.54. D14R gave a protein stability index of 2.24. D14S showed a protein stability index of 2.49. D14T showed a protein stability index of 2.13. D14V gave a protein stability index of 2. Work on D14W yielded a protein stability index of 1.59. Variant D14Y has a protein stability index of 1.99. For D15A, the protein stability index was 2.69. D15C gave a protein stability index of 2.91. For D15E, the protein stability index was 4.1. In the case of D15F, the protein stability index is reported as 3.21. D15G showed a protein stability index of 2.61. Work on D15H yielded a protein stability index of 2.86. In the case of D15I, the protein stability index is reported as 2.1. With D15K the protein stability index was 2.28. D15L showed a protein stability index of 2.26. For D15M, the protein stability index was 3.21. For D15N, the protein stability index was 2.41. D15P gave a protein stability index of 2.46. For D15Q, the protein stability index was 2.35. D15R showed a protein stability index of 2.63. With D15S the protein stability index was 2.96. D15T showed a protein stability index of 2.79. D15V showed a protein stability index of 2.47. In the case of D15W, the protein stability index is reported as 2.14. With D15Y the protein stability index was 3.23. S16A showed a protein stability index of 2.57. With S16C the protein stability index was 2.75. For S16D, the protein stability index was 3.17. S16E showed a protein stability index of 3.96. Variant S16F has a protein stability index of 2.77. Work on S16G yielded a protein stability index of 3.09. For S16H, the protein stability index was 2.95. Work on S16I yielded a protein stability index of 3.18. In the case of S16K, the protein stability index is reported as 3.48. S16L showed a protein stability index of 3.15. For S16M, the protein stability index was 2.64. Work on S16N yielded a protein stability index of 3.06. Variant S16P has a protein stability index of 2.86. S16Q gave a protein stability index of 3.82. Variant S16R has a protein stability index of 2.61. With S16T the protein stability index was 2.94. S16V gave a protein stability index of 3.15. Work on S16W yielded a protein stability index of 1.77. For S16Y, the protein stability index was 2.88. For T17A, the protein stability index was 3.02. T17C showed a protein stability index of 2.72. Work on T17D yielded a protein stability index of 4.02. T17E gave a protein stability index of 3.41. Work on T17F yielded a protein stability index of 2.77. With T17G the protein stability index was 2.7. T17H gave a protein stability index of 3.18. With T17I the protein stability index was 2.85. With T17K the protein stability index was 3.6. In the case of T17L, the protein stability index is reported as 2.66. T17M showed a protein stability index of 3.09. T17N gave a protein stability index of 3.6. In the case of T17P, the protein stability index is reported as 3.68. T17Q showed a protein stability index of 3.89. T17R showed a protein stability index of 2.78. For T17S, the protein stability index was 2.78. In the case of T17V, the protein stability index is reported as 2.78. Variant T17W has a protein stability index of 2.17. Variant T17Y has a protein stability index of 2.39. With S18A the protein stability index was 3.7. Work on S18C yielded a protein stability index of 3.69. In the case of S18D, the protein stability index is reported as 4.03. For S18E, the protein stability index was 3.17. For S18F, the protein stability index was 2.63. S18G showed a protein stability index of 2.93. S18H showed a protein stability index of 3.5. S18I gave a protein stability index of 2.99. For S18K, the protein stability index was 2.88. Variant S18L has a protein stability index of 2.35. Work on S18M yielded a protein stability index of 2.97. S18N showed a protein stability index of 3.67. S18P gave a protein stability index of 3.58. Work on S18Q yielded a protein stability index of 3.43. Work on S18R yielded a protein stability index of 1.89. Work on S18T yielded a protein stability index of 2.57. S18V gave a protein stability index of 2.35. With S18W the protein stability index was 2.28. S18Y showed a protein stability index of 2.35. E19A gave a protein stability index of 2.36. For E19C, the protein stability index was 3.04. E19D showed a protein stability index of 3.34. With E19F the protein stability index was 1.94. E19G showed a protein stability index of 3.03. Work on E19H yielded a protein stability index of 2.95.
